Data reported in patent US20110160440A1 (GENENCOR INTERNATIONAL, published 2011).

B1: NA08.1 (scFv)
chain: QVQLQQSGAELVKSGGSVKLSCTASGFNIKDSYMHWVRQGPEQGLEWIGHIDPENGDTEYAPKFQGKATFTTDTSSNTAYLQLSSLTSEDTAVYYCNEGTPTGPYYFDYWGQGTTVTVSSGGGGSGGGGSGGGGSENVLTQSPAIVSASPGEKVTITCSASSSVSAMHWFQQKPGTSPKLVIYSTSNLASGVPARFSGSGSGTSYSLTISRMEAEDAATYYCQQRSSYPLTFGAGTKLELKRAATPVSEKQLAEVVANTITPLMKAQSVPGMAVAVIYQGKPHYYTFGKADIAANKPVTPQTLFELGSISKTFTGVLGGDAIARGEISLDDAVTRYWPQLTGKQWQGIRMLDLATYTAGGLPLQVPDEVTDNASLLRFYQNWQPQWKPGTTRLYANASIGLFGALAVKPSGMPYEQAMTTRVLKPLKLDHTWINVPKAEEAHYAWGYRDGKAVRVSPGMLDAQAYGVKTNVQDMANWVMANMAPENVADASLKQGIALAQSRYWRIGSMYQGLGWEMLNWPVEANTVVETSFGNVALAPLPVAEVNPPAPPVKASWVHKTGSTGGFGSYVAFIPEKQIGIVMLANTSYPNPARVEAAYHILEALQ
B2: NA08.4 (scFv)
chain: QVQLQQSGAELVKSGGSVKLSCTASGFNIKDSYMHWVRQGPEQGLEWIGWIDPENGDTEYAPKFQGKATFTTDTSSNTAYLQLSSLTSEDTAVYYCNEGDPTGPYYFDYWGQGTTVTVSSGGGGSGGGGSGGGGSENVLTQSPAIVSASPGEKVTITCSASSSVSYMHWFQQKPGTSPKLVIYSTSNLADGVPARFSGSGSGTSYSLTISRMEAEDAATYYCQQRSSYPLTFGAGTKLELKRAATPVSEKQLAEVVANTITPLMKAQSVPGMAVAVIYQGKPHYYTFGKADIAANKPVTPQTLFELGSISKTFTGVLGGDAIARGEISLDDAVTRYWPQLTGKQWQGIRMLDLATYTAGGLPLQVPDEVTDNASLLRFYQNWQPQWKPGTTRLYANASIGLFGALAVKPSGMPYEQAMTTRVLKPLKLDHTWINVPKAEEAHYAWGYRDGKAVRVSPGMLDAQAYGVKTNVQDMANWVMANMAPENVADASLKQGIALAQSRYWRIGSMYQGLGWEMLNWPVEANTVVETSFGNVALAPLPVAEVNPPAPPVKASWVHKTGSTGGFGSYVAFIPEKQIGIVMLANTSYPNPARVEAAYHILEALQ
B3: NA08.14 (scFv)
chain: QVQLQQSGAELVKSGGSVKLSCTASGFNIKDSYMHWVRQGPEQGLEWIGWIDPENGDTEYAPKFQGKATFTTDTSSNTAYLQLSSLTSEDTAVYYCNEGTDTGPYYFDYWGQGTTVTVSSGGGGSGGGGSGGGGSENVLTQSPAIVSASPGEKVTITCSASSSVSYMHWFQQKPGTSPKLVIYSTSNLASGVPARFSGSGSGTSYSLTISRMEAEDAATYYCQQRSSYPLTFGAGTKLELKRAATPVSEKQLAEVVANTITPLMKAQSVPGMAVAVIYQGKPHYYTFGKADIAANKPVTPQTLFELGSISKTFTGVLGGDAIARGEISLDDAVTRYWPQLTGKQWQGIRMLDLATYTAGGLPLQVPDEVTDNASLLRFYQNWQPQWKPGTTRLYANASIGLFGALAVKPSGMPYEQAMTTRVLKPLKLDHTWINVPKAEEAHYAWGYRDGKAVRVSPGMLDAQAYGVKTNVQDMANWVMANMAPENVADASLKQGIALAQSRYWRIGSMYQGLGWEMLNWPVEANTVVETSFGNVALAPLPVAEVNPPAPPVKASWVHKTGSTGGFGSYVAFIPEKQIGIVMLANTSYPNPARVEAAYHILEALQ
B4: NA08.3 (scFv)
chain: QVQLQQSGAELVKSGGSVKLSCTASGFNIKDSYMHWVRQGPEQGLEWIGWIDPENGDTEYAPKFQGKATFTTDTSSNTAYLQLSSLTSEDTAVYYCNEGTPTGPYYFDYWGQGTTVTVSSGGGGSGGGGSGGGGSENVLTQSPAIVSASPGEKVTITCSASSSVSYMHWFQQKPGTSPKLVIYSTSNLADGVPARFSGSGSGTSYSLTISRMEAEDAATYYCQQRDSYPLTFGAGTKLELKRAATPVSEKQLAEVVANTITPLMKAQSVPGMAVAVIYQGKPHYYTFGKADIAANKPVTPQTLFELGSISKTFTGVLGGDAIARGEISLDDAVTRYWPQLTGKQWQGIRMLDLATYTAGGLPLQVPDEVTDNASLLRFYQNWQPQWKPGTTRLYANASIGLFGALAVKPSGMPYEQAMTTRVLKPLKLDHTWINVPKAEEAHYAWGYRDGKAVRVSPGMLDAQAYGVKTNVQDMANWVMANMAPENVADASLKQGIALAQSRYWRIGSMYQGLGWEMLNWPVEANTVVETSFGNVALAPLPVAEVNPPAPPVKASWVHKTGSTGGFGSYVAFIPEKQIGIVMLANTSYPNPARVEAAYHILEALQ
B5: NA08.12 (scFv)
chain: QVQLQQSGAELVKSGGSVKLSCTASGFNIKDSYMHWVRQGPEQGLEWIGWIDPENGDTEYAPKFQGKATFTTDTSSNTAYLQLSSLTSEDTAVYYCNEGTPHGPYYFDYWGQGTTVTVSSGGGGSGGGGSGGGGSENVLTQSPAIVSASPGEKVTITCSASSSVSAMHWFQQKPGTSPKLVIYSTSNLASGVPARFSGSGSGTSYSLTISRMEAEDAATYYCQQRDSYPLTFGAGTKLELKRAATPVSEKQLAEVVANTITPLMKAQSVPGMAVAVIYQGKPHYYTFGKADIAANKPVTPQTLFELGSISKTFTGVLGGDAIARGEISLDDAVTRYWPQLTGKQWQGIRMLDLATYTAGGLPLQVPDEVTDNASLLRFYQNWQPQWKPGTTRLYANASIGLFGALAVKPSGMPYEQAMTTRVLKPLKLDHTWINVPKAEEAHYAWGYRDGKAVRVSPGMLDAQAYGVKTNVQDMANWVMANMAPENVADASLKQGIALAQSRYWRIGSMYQGLGWEMLNWPVEANTVVETSFGNVALAPLPVAEVNPPAPPVKASWVHKTGSTGGFGSYVAFIPEKQIGIVMLANTSYPNPARVEAAYHILEALQ
B6: NA08.17 (scFv)
chain: QVQLQQSGAELVKSGGSVKLSCTASGFNIKDSYMHWVRQGPEQGLEWIGHIDPENGDTEYAPKFQGKATFTTDTSSNTAYLQLSSLTSEDTAVYYCNEGTPTGPYYFDYWGQGTTVTVSSGGGGSGGGGSGGGGSENVLTQSPAIVSASPGEKVTITCSASSSVSYMHWFQQKPGTSPKLVIYDTSNLASGVPARFSGSGSGTSYSLTISRMEAEDAATYYCQQRSSYPLTFGAGTKLELKRAATPVSEKQLAEVVANTITPLMKAQSVPGMAVAVIYQGKPHYYTFGKADIAANKPVTPQTLFELGSISKTFTGVLGGDAIARGEISLDDAVTRYWPQLTGKQWQGIRMLDLATYTAGGLPLQVPDEVTDNASLLRFYQNWQPQWKPGTTRLYANASIGLFGALAVKPSGMPYEQAMTTRVLKPLKLDHTWINVPKAEEAHYAWGYRDGKAVRVSPGMLDAQAYGVKTNVQDMANWVMANMAPENVADASLKQGIALAQSRYWRIGSMYQGLGWEMLNWPVEANTVVETSFGNVALAPLPVAEVNPPAPPVKASWVHKTGSTGGFGSYVAFIPEKQIGIVMLANTSYPNPARVEAAYHILEALQ
B7: NA08.9 (scFv)
chain: QVQLQQSGAELVKSGGSVKLSCTASGFNIKDSYMHWVRQGPEQGLEWIGWIDPENGDTEYAPKFQGKATFTTDTSSNTAYLQLSSLTSEDTAVYYCNEGTPTGPYYFDYWGQGTTVTVSSGGGGSGGGGSGGGGSENVLTQSPAIVSASPGEKVTITCSASSSVSAMHWFQQKPGTSPKLVIYSTSNLASGVPARFSGSGSGTSYSLTISRMEAEDAATYYCQQRSSYPLTFGAGTKLELKRAATPVSEKQLAEVVANTITPLMKAQSVPGMAVAVIYQGKPHYYTFGKADIAANKPVTPQTLFELGSISKTFTGVLGGDAIARGEISLDDAVTRYWPQLTGKQWQGIRMLDLATYTAGGLPLQVPDEVTDNASLLRFYQNWQPQWKPGTTRLYANASIGLFGALAVKPSGMPYEQAMTTRVLKPLKLDHTWINVPKAEEAHYAWGYRDGKAVRVSPGMLDAQAYGVKTNVQDMANWVMANMAPENVADASLKQGIALAQSRYWRIGSMYQGLGWEMLNWPVEANTVVETSFGNVALAPLPVAEVNPPAPPVKASWVHKTGSTGGFGSYVAFIPEKQIGIVMLANTSYPNPARVEAAYHILEALQ
B8: NA08.13 (scFv)
chain: QVQLQQSGAELVKSGGSVKLSCTASGFNIKDSYMHWVRQGPEQGLEWIGWIDPENGDTEYAPKFHGKATFTTDTSSNTAYLQLSSLTSEDTAVYYCNEGTPTGPYYFDYWGQGTTVTVSSGGGGSGGGGSGGGGSENVLTQSPAIVSASPGEKVTITCSASSSVSYMHWFQQKPGTSPKLVIYDTSNLASGVPARFSGSGSGTSYSLTISRMEAEDAATYYCQQRDSYPLTFGAGTKLELKRAATPVSEKQLAEVVANTITPLMKAQSVPGMAVAVIYQGKPHYYTFGKADIAANKPVTPQTLFELGSISKTFTGVLGGDAIARGEISLDDAVTRYWPQLTGKQWQGIRMLDLATYTAGGLPLQVPDEVTDNASLLRFYQNWQPQWKPGTTRLYANASIGLFGALAVKPSGMPYEQAMTTRVLKPLKLDHTWINVPKAEEAHYAWGYRDGKAVRVSPGMLDAQAYGVKTNVQDMANWVMANMAPENVADASLKQGIALAQSRYWRIGSMYQGLGWEMLNWPVEANTVVETSFGNVALAPLPVAEVNPPAPPVKASWVHKTGSTGGFGSYVAFIPEKQIGIVMLANTSYPNPARVEAAYHILEALQ

target: T1, CEA (carcinoembryonic antigen, Biodesign Intl., Saco, Me.) (UniProt P06731 35-685); assay: CEA-coated plate at pH 6.5 and pH 7.4, bound BLA activity
T1 construct: also called immobilized CEA
T1 sequence: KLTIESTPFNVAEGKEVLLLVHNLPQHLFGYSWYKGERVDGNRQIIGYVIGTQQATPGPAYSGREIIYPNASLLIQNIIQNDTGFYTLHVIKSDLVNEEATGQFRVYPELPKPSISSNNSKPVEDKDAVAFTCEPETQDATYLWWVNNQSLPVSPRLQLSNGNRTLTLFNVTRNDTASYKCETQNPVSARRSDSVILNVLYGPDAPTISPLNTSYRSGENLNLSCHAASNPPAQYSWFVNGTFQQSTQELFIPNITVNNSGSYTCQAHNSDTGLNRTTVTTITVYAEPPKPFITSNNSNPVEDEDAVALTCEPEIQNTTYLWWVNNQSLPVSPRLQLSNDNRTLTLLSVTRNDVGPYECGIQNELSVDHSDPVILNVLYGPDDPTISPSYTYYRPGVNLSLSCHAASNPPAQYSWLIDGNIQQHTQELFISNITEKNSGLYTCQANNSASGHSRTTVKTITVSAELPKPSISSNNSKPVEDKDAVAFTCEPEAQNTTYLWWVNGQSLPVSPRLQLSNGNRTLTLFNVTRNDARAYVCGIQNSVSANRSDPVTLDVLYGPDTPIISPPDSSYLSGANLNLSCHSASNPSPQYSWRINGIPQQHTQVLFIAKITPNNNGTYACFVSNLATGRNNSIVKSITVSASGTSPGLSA

| Binder | binding result |
| --- | --- |
| B1 | binds |
| B2 | binds |
| B3 | binds |
| B4 | binds |
| B5 | binds |
| B6 | binds |
| B7 | binds |
| B8 | binds |
